From US20250011363A1, “OPTIMIZED SHORTENED PEPTIDE THAT BINDS TO ACETYLCHOLINE RECEPTOR, AND USE THEREOF” (SKINMED CO., LTD., priority 2021, published 2025)

What follows are binders tested against acetylcholine receptor (assay: SPR, AchR immobilized on CM5 chip, peptide at 10 µM).

Binder	Binding affinity (RU)
KSLLK [5mer-129]	63
KSQYK [5mer-429]	63
RRFRK [5mer-130]	80
KWRTK [5mer-430]	80
KLRRR [5mer-131]	72
KVQLK [5mer-431]	81
RVRCK [5mer-132]	83
RQVRR [5mer-432]	52
KGQRK [5mer-133]	84
KWRCR [5mer-433]	73
RQFSK [5mer-134]	61
RVLQK [5mer-434]	74
RRLLR [5mer-135]	64
KLRQR [5mer-435]	69
RRIYK [5mer-136]	75
RVFYK [5mer-436]	60
KGVSK [5mer-137]	77
RVRLR [5mer-437]	50
RQRCR [5mer-138]	71
RVRSR [5mer-438]	76

Binder	Binding affinity (RU)
RLQYK [5mer-139]	73
KRVTR [5mer-439]	65
KWRLR [5mer-140]	69
RQVTK [5mer-440]	57
RWQQR [5mer-141]	50
KLIRK [5mer-441]	53
RQYSR [5mer-142]	52
KVRLR [5mer-442]	61
KGQQR [5mer-143]	64
RGFTK [5mer-443]	80
KRFSK [5mer-144]	58
KQQYR [5mer-444]	65
RSFSK [5mer-145]	62
RLFTR [5mer-445]	77
RWFTK [5mer-146]	52
RGLQK [5mer-446]	53
RRYQK [5mer-147]	66
KGYYK [5mer-447]	76
RSQTK [5mer-148]	50
RQIRK [5mer-448]	74

The binders below were run against acetylcholine receptor (assay: SPR, receptor immobilised on chip, peptide at 10 uM).

Binder	Binding affinity (RU)
KKMVKR [6mer-2-899]	13
RFSAKK [6mer-2-900]	11
RYWDRK [6mer-2-901]	34
KPDVRK [6mer-2-902]	26
KKNPKK [6mer-2-903]	40
KCCFKK [6mer-2-904]	30
RPKERR [6mer-2-905]	26
KYCDKK [6mer-2-906]	40
RTMNRR [6mer-2-907]	25
KYKKKR [6mer-2-908]	33
RCNPRR [6mer-2-909]	42
RHEHRR [6mer-2-910]	21
KMSGKR [6mer-2-911]	21
RAPIRR [6mer-2-912]	27
KFKNRR [6mer-2-913]	25
KDDIKK [6mer-2-914]	25
KNCWKR [6mer-2-915]	29
KTTEKR [6mer-2-916]	22
RFCWRK [6mer-2-917]	23

Binder	Binding affinity (RU)
KNWMRK [6mer-2-918]	35
KAKHKR [6mer-2-919]	27
RMTIKK [6mer-2-920]	26
RPKAKK [6mer-2-921]	22
KDNVRR [6mer-2-922]	41
RCCAKK [6mer-2-923]	33
RFDHKK [6mer-2-924]	28
RASVKR [6mer-2-925]	23
RPTVKR [6mer-2-926]	31
RFNPRK [6mer-2-927]	39
KFCIRR [6mer-2-928]	28
KNHMRK [6mer-2-929]	26
RTWIKR [6mer-2-930]	37
RYCFKR [6mer-2-931]	29
RIPWRR [6mer-2-932]	35
RYSMKR [6mer-2-933]	34
KYKDRR [6mer-2-934]	26
KKCNKK [6mer-2-935]	22
KPPAKK [6mer-2-936]	21
